Values quoted from earlier work as cited in patent US12037378B2, “Variant CD58 domains and uses thereof” (NOVARTIS AG, priority 2019, dated 2024).

Biological target: T1, CD2 (Homo sapiens, UniProt P06729)
T1 sequence (P06729 25-351): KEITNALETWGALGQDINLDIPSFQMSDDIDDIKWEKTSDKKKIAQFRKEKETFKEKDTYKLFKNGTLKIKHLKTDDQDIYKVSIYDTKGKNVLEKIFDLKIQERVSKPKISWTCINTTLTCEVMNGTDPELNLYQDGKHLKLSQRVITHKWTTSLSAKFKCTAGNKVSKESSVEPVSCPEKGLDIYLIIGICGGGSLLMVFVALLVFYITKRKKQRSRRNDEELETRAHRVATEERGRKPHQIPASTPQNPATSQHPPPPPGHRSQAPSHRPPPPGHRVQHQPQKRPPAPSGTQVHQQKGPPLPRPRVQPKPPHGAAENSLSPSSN
Conditions: Wang et al., 1999, Cell 97:791-803; cited from earlier work

B1: CD58-6: Amino acids 30-123 (WT) Ig-V like domain of CD58, SEQ ID NO:6 (protein, listed as Homo sapiens)
chain: SQQIYGVVYGNVTFHVPSNVPLKEVLWKKQKDKVAELENSEFRAFSSFKNRVYLDTVSGSLTIYNLTSSDEDEYEMESPNITDTMKFFLYVLES
  binding to CD2: sufficient for binding to CD2
